Article PMC11811267 (Journal of Separation Science, 2025)

Experiments:
Assay type in all cases: in vitro ADME
[1] = Long-term stability in artificial plasma at −80°C; conditions: triplicate, 2D-LC-MS/MS
Experimental: (§1) The stability tests of all insulins were performed at two concentration levels (193 and 7752 pg/mL). One set of tests was performed with artificial plasma and the other set with artificial plasma containing 1% PIC. Each concentration level was tested in triplicate. These QC samples were quantified using an artificial plasma calibration curve without PIC, and the obtained concentrations were compared with the nominal concentrations of the low quality control (LQC) and high quality control (HQC), which were set to 100%. To evaluate the stability of insulins in artificial plasma containing 1% PIC, we considered the concentration measured at time zero as the baseline (100%). All subsequent changes in concentration were calculated relative to this initial measurement.
(§2) Short‐term stability, long‐term stability, and freeze‐thaw stability were evaluated in this study. LQC and HQC samples were stored at room temperature and in a refrigerator for 3, 6, and 24 h to assess short‐term (bench‐top) stability and at 4°C in the autosampler for 24 h to assess re‐injection stability.

[2] = Autosampler (re-injection) stability at 4°C for 24 h; conditions: autosampler (AS) 4°C, triplicate, 2D-LC-MS/MS
Experimental: as §1, §2

[3] = Freeze-thaw stability in artificial plasma after storage at −80°C; conditions: stored at −80°C, triplicate, 2D-LC-MS/MS; for 24 h, change (%): cycle at 24 h; for 48 h, change (%): cycle at 48 h; for 72 h, change (%): cycle at 72 h
Experimental: as §1, §2

[4] = Long-term stability in artificial plasma at −20°C; conditions: triplicate, 2D-LC-MS/MS
Experimental: as §1, §2

[5] = artificial plasma (BZ273) with 1% PIC, 193 pg/mL, % of concentration at time zero
[6] = artificial plasma (BZ273) with 1% PIC, 7752 pg/mL, % of concentration at time zero
[7] = artificial plasma (BZ273) without PIC, 193 pg/mL, % of nominal concentration
[8] = artificial plasma (BZ273) without PIC, 7752 pg/mL, % of nominal concentration
[9] = extracted samples from artificial plasma with 1% PIC, 193 pg/mL, % of concentration at time zero (=100%)
[10] = extracted samples from artificial plasma with 1% PIC, 7752 pg/mL, % of concentration at time zero (=100%)
[11] = extracted samples from artificial plasma without PIC, 193 pg/mL, % of nominal concentration (=100%)
[12] = extracted samples from artificial plasma without PIC, 7752 pg/mL, % of nominal concentration (=100%)
[13] = artificial plasma (BZ273) without PIC, 7752 pg/mL, % of nominal concentration, listed as Insulin aspart

For detemir, the “1 week, change (%)” value [1, 5] was “<LLOQ”, the “1 week, change (%)” value [1, 6] was 139.1% and the “1 week, change (%)” value [1, 7] was 64.2%. The “1 week, change (%)” value [1, 8] was 63.2%, the “2 weeks, change (%)” value [1, 5] was “<LLOQ” and the “2 weeks, change (%)” value [1, 6] was 173.5%. The “2 weeks, change (%)” value [1, 7] was 50.5%, the “2 weeks, change (%)” value [1, 8] was 54.7% and the “3 weeks, change (%)” value [1, 5] was “<LLOQ”. The “3 weeks, change (%)” value ([1]; artificial plasma (BZ273) with 1% PIC, 193 pg/mL, % of concentration at time zero, listed as Insulin detemir) was “< LLOQ”, the “3 weeks, change (%)” value [1, 6] was 154.5% and the “3 weeks, change (%)” value [1, 7] was 34.1%. For the same substance, the “3 weeks, change (%)” value [1, 8] was 49.4%, the “24 h AS, change (%)” value [2, 9] was “<LLOQ” and the “24 h AS, change (%)” value [2, 10] was 66.0%. The “24 h AS, change (%)” value [2, 11] was 98.4%, the “24 h AS, change (%)” value [2, 12] was 93.7% and the “24 h, change (%)” value [3, 5] was 115.2%. For the same substance, the “24 h, change (%)” value [3, 6] was 375.0%, the “24 h, change (%)” value [3, 7] was 253.5% and the “24 h, change (%)” value [3, 8] was 168.5%. The “48 h, change (%)” value [3, 5] was 140.6%, the “48 h, change (%)” value [3, 6] was 344.2% and the “48 h, change (%)” value [3, 7] was 349.6%. The “48 h, change (%)” value [3, 8] was 195.4%, the “72 h, change (%)” value [3, 5] was 116.7% and the “72 h, change (%)” value [3, 6] was 285.9%. For the same substance, the “72 h, change (%)” value [3, 7] was 243.7%, the “72 h, change (%)” value [3, 8] was 161.5% and the “1 week, change (%)” value [4, 5] was “<LLOQ”. For the same substance, the “1 week, change (%)” value [4, 6] was 71.2%, the “1 week, change (%)” value [4, 7] was “<LLOQ” and the “1 week, change (%)” value [4, 8] was 27.0%. For the same substance, the “2 weeks, change (%)” value [4, 5] was “<LLOQ”, the “2 weeks, change (%)” value [4, 6] was 71.8% and the “2 weeks, change (%)” value [4, 7] was “<LLOQ”. For the same substance, the “2 weeks, change (%)” value [4, 8] was 24.8%, the “3 weeks, change (%)” value [4, 5] was “<LLOQ” and the “3 weeks, change (%)” value [4, 6] was 62.2%. The “3 weeks, change (%)” value [4, 7] was “<LLOQ” and the “3 weeks, change (%)” value [4, 8] was 21.9%.
In the case of insulin aspart, the “1 week, change (%)” value [1, 5] is reported as 116.5%, the “1 week, change (%)” value [1, 6] is reported as 123.4% and the “1 week, change (%)” value [1, 7] is reported as 106.0%. For the same substance, the “1 week, change (%)” value [1, 8] was 104.7%, the “2 weeks, change (%)” value [1, 5] was 99.6% and the “2 weeks, change (%)” value [1, 6] was 106.6%. For the same substance, the “2 weeks, change (%)” value [1, 8] was 97.2%, the “3 weeks, change (%)” value [1, 5] was 93.4% and the “3 weeks, change (%)” value [1, 6] was 108.9%. The “3 weeks, change (%)” value [1, 7] was 97.8%, the “3 weeks, change (%)” value [1, 8] was 92.8% and the “24 h AS, change (%)” value [2, 10] was 125.7%. For the same substance, the “24 h AS, change (%)” value [2, 11] was 92.6%, the “24 h, change (%)” value [3, 5] was 111.6% and the “24 h, change (%)” value [3, 6] was 117.4%. For the same substance, the “24 h, change (%)” value [3, 7] was 90.4%, the “24 h, change (%)” value [3, 8] was 100.00% and the “24 h, change (%)” value [3, 13] was 100.0%. For the same substance, the “48 h, change (%)” value [3, 5] was 111.6%, the “48 h, change (%)” value [3, 6] was 115.5% and the “48 h, change (%)” value [3, 7] was 98.1%. The “72 h, change (%)” value [3, 5] was 93.7%, the “72 h, change (%)” value [3, 6] was 99.8% and the “72 h, change (%)” value [3, 7] was 85.7%. The “72 h, change (%)” value [3, 8] was 92.10%, the “72 h, change (%)” value [3, 13] was 92.1% and the “1 week, change (%)” value [4, 5] was 70.7%. For the same substance, the “1 week, change (%)” value [4, 6] was 72.2%, the “1 week, change (%)” value [4, 7] was 105.6% and the “1 week, change (%)” value [4, 8] was 104.3%. For the same substance, the “2 weeks, change (%)” value [4, 5] was 58.4%, the “2 weeks, change (%)” value [4, 6] was 62.5% and the “2 weeks, change (%)” value [4, 7] was 107.3%. For the same substance, the “2 weeks, change (%)” value [4, 8] was 100.2%, the “3 weeks, change (%)” value [4, 5] was 39.5% and the “3 weeks, change (%)” value [4, 6] was 35.8%. For the same substance, the “3 weeks, change (%)” value [4, 7] was 101.4% and the “3 weeks, change (%)” value [4, 8] was 95.2%.
With glulisine the “1 week, change (%)” value [1, 6] was 88.1%, the “1 week, change (%)” value [1, 7] was 103.5% and the “1 week, change (%)” value [1, 8] was 84.5%. For the same substance, the “2 weeks, change (%)” value [1, 6] was 117.9%, the “2 weeks, change (%)” value [1, 7] was 102.7% and the “2 weeks, change (%)” value [1, 8] was 83.7%. For the same substance, the “3 weeks, change (%)” value [1, 5] was 79.1%, the “3 weeks, change (%)” value [1, 6] was 95.2% and the “3 weeks, change (%)” value [1, 7] was 98.8%. The “3 weeks, change (%)” value [1, 8] was 75.6%, the “24 h AS, change (%)” value [2, 9] was 93.2% and the “24 h AS, change (%)” value [2, 11] was 97.6%. The “24 h AS, change (%)” value [2, 12] was 82.2%, the “24 h, change (%)” value [3, 5] was 79.0% and the “24 h, change (%)” value [3, 6] was 93.1%. For the same substance, the “24 h, change (%)” value [3, 7] was 99.0%, the “24 h, change (%)” value [3, 8] was 92.3% and the “48 h, change (%)” value [3, 5] was 106.9%. The “48 h, change (%)” value [3, 6] was 119.5%, the “48 h, change (%)” value [3, 8] was 95.2% and the “72 h, change (%)” value [3, 5] was 92.4%. The “72 h, change (%)” value [3, 6] was 95.0%, the “72 h, change (%)” value [3, 7] was 106.5% and the “72 h, change (%)” value [3, 8] was 81.1%. For the same substance, the “1 week, change (%)” value [4, 5] was 51.7%, the “1 week, change (%)” value [4, 6] was 55.6% and the “1 week, change (%)” value [4, 7] was 99.7%. For the same substance, the “1 week, change (%)” value [4, 8] was 86.2%, the “2 weeks, change (%)” value [4, 5] was 36.7% and the “2 weeks, change (%)” value [4, 6] was 143.0%. For the same substance, the “2 weeks, change (%)” value [4, 8] was 84.0%, the “3 weeks, change (%)” value [4, 5] was 29.2% and the “3 weeks, change (%)” value [4, 6] was 31.5%. For the same substance, the “3 weeks, change (%)” value [4, 7] was 84.8% and the “3 weeks, change (%)” value [4, 8] was 79.8%.
